Results as given in paper PMC11272584 (Nature Metabolism, 2024).

T1: GIPR W233* (Homo sapiens, UniProt P48546)
T1 construct: host or cells: HEK293
T1 sequence (P48546 22-232 limits assumed): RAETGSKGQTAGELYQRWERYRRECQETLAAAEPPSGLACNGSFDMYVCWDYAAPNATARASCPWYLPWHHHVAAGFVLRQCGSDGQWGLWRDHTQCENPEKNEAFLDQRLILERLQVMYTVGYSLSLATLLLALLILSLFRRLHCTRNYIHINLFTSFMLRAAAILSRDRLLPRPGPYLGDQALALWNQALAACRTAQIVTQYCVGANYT

T2: GIPR A207V (Homo sapiens, UniProt P48546, A207V)
T2 construct: host or cells: HEK293
T2 sequence (P48546 22-466 A207V): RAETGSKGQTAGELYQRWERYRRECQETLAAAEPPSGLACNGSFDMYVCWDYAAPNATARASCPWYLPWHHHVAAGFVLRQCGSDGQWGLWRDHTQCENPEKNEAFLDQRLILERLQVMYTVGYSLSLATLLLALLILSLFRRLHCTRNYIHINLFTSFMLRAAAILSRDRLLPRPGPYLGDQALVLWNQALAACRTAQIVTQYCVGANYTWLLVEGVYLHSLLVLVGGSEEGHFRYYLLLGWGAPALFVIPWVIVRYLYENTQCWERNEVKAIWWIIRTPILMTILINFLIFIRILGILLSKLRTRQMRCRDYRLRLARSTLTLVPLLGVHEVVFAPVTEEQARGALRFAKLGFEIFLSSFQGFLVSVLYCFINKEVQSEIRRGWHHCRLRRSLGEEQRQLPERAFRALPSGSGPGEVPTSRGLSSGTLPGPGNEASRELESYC

T3: GIPR I221M (Homo sapiens, UniProt P48546, I221M)
T3 construct: host or cells: HEK293
T3 sequence (P48546 22-466 I221M): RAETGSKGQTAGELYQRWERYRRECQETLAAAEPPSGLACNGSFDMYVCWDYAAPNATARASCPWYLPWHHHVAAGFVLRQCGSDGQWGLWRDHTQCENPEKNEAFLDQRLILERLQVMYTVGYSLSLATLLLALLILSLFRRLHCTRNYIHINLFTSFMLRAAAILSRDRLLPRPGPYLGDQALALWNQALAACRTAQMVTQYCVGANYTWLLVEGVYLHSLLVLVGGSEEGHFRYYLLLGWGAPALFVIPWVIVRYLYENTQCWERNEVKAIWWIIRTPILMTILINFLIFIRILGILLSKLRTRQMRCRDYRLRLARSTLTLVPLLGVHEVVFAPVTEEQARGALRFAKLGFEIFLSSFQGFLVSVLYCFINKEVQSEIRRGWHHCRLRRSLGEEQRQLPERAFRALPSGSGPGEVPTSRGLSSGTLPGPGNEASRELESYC


Key:
GIPR variants (groups) [1] = assay: cAMP accumulation; format: cell-based, human; settings: for In vitro groups (cAMP): cAMP part of the in vitro group; for percentage_camp: cAMP production compared with WT; for Beta, cAMP: in vitro cAMP production per GIPR variant
Procedure: HEK293 (CRL-1573, American Type Culture Collection) and β-arrestin 1/2 knockout cells, generated from HEK293A[48], were used for cAMP measurement, homologues competition binding and β-arrestin 2 recruitment. For the internalization assay, endosomal signalling and basal receptor localization experiments, HEK293A (R70507, Thermo Fisher) cells were used. Both cell lines were cultured at 5% CO2 at 37 °C in Roswell Park Memorial Institute GlutaMAX-I supplemented with 10% fetal bovine serum, 180 units ml^−1 penicillin, and 45 g ml^−1 streptomycin. For the cAMP and binding experiments, cells were transfected with the calcium phosphate precipitation method[49]. The polyethyleneimine (PEI) transfection method was used for the β-arrestin 2 recruitment assays[50], endosomal signalling and basal receptor localization assays, while the lipofectamine transfection method was used for the internalization assay.
(§1) cAMP production was measured with the DiscoverX Hithunter cAMP assay according to the manufacturer’s protocol (DiscoverX). […] On the day of the assay, the cells were washed twice with HEPES-buffered saline (HBS) and incubated with HBS and 1 mM 3-isobutyl-1-methylxanthine for 30 min at 37 °C. […] After the incubation, the assay medium was removed from the plate and the cells were washed with 30 µl PBS and treated with 40 µl enzyme donor–lysis buffer–chemiluminescent reagents and 10 µl cAMP antibodies for 60 min before 40 µl enzyme acceptor solution added. After a 3-h incubation on a shaking table in the dark, the cAMP accumulation was measured based on luminescence with a Perkin Elmer EnVision 2104 Multilabel Microplate Reader.
For cAMP accumulation, the data were fitted as a sigmoidal curve with a Hill slope of 1; for homologous competition binding, the data were fitted as a sigmoidal curve with a Hill slope of −1.

GIPR W233* = target: T1, GIPR W233*; assay: cAMP accumulation; format: cell-based
Procedure: (§2) HEK293 (CRL-1573, American Type Culture Collection) and β-arrestin 1/2 knockout cells, generated from HEK293A[48], were used for cAMP measurement, homologues competition binding and β-arrestin 2 recruitment. […] Both cell lines were cultured at 5% CO2 at 37 °C in Roswell Park Memorial Institute GlutaMAX-I supplemented with 10% fetal bovine serum, 180 units ml^−1 penicillin, and 45 g ml^−1 streptomycin. For the cAMP and binding experiments, cells were transfected with the calcium phosphate precipitation method[49].
as §1

GIPR variants (groups) [2] = assay: β-arrestin 2 recruitment (BRET); settings: for In vitro groups (β-arrestin): arr part of the in vitro group; for Beta, Barr: in vitro β-arrestin recruitment per GIPR variant;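 for all read-outs here: BRET readout of β-arrestin 2 recruitment in transiently transfected HEK293 cells expressing WT GIPR or a GIPR variant plus GPCR kinase 2, Rluc8 donor and citrine acceptor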
Procedure: Both cell lines were cultured at 5% CO2 at 37 °C in Roswell Park Memorial Institute GlutaMAX-I supplemented with 10% fetal bovine serum, 180 units ml^−1 penicillin, and 45 g ml^−1 streptomycin. […] The polyethyleneimine (PEI) transfection method was used for the β-arrestin 2 recruitment assays[50], endosomal signalling and basal receptor localization assays, while the lipofectamine transfection method was used for the internalization assay.
Measurement of β-arrestin 2 recruitment was performed with a BRET assay. Two days before the assay, the HEK293 cells were transiently transfected with either WT GIPR or the GIPR variants together with the donor Rluc8-Arrestin-3-Sp1, the acceptor mem-linker-citrine-SH3 and the GPCR kinase 2 to facilitate β-arrestin 2 recruitment. On assay day, the cells were washed with PBS and resuspended in PBS supplemented with 5 mmol l^−1 glucose. Subsequently, 85 µl of the cell suspension was transferred to a white 96-well plate and 10 µl of 50 µM coelenterazine-h was added.

GIPR A207V = target: T2, GIPR A207V; assay: cAMP accumulation; format: cell-based
Procedure: as §2, §1

GIPR I221M = target: T3, GIPR I221M; assay: cAMP accumulation; format: cell-based
Procedure: as §2, §1

| Molecule | In vitro groups (cAMP) (GIPR variants (groups) [1]) | percentage_camp (GIPR variants (groups) [1]) [% cAMP] | Efficacy at 100pmol (cAMP) (GIPR W233*) | In vitro groups (β-arrestin) (GIPR variants (groups) [2]) | Efficacy at 100pmol (cAMP) (GIPR A207V) | Beta, cAMP (GIPR variants (groups) [1]) | Beta, Barr (GIPR variants (groups) [2]) | Efficacy at 100pmol (cAMP) (GIPR I221M) |
| --- | --- | --- | --- | --- | --- | --- | --- | --- |
| W233* (protein) RAETGSKGQTAGELYQRWERYRRECQETLAAAEPPSGLACNGSFDMYVCWDYAAPNATARASCPWYLPWHHHVAAGFVLRQCGSDGQWGLWRDHTQCENPEKNEAFLDQRLILERLQVMYTVGYSLSLATLLLALLILSLFRRLHCTRNYIHINLFTSFMLRAAAILSRDRLLPRPGPYLGDQALALWNQALAACRTAQIVTQYCVGANYT | LoF_camp | <50 | 0.06458 | LoF_arr | – | – | – | – |
| A207V (protein) RAETGSKGQTAGELYQRWERYRRECQETLAAAEPPSGLACNGSFDMYVCWDYAAPNATARASCPWYLPWHHHVAAGFVLRQCGSDGQWGLWRDHTQCENPEKNEAFLDQRLILERLQVMYTVGYSLSLATLLLALLILSLFRRLHCTRNYIHINLFTSFMLRAAAILSRDRLLPRPGPYLGDQALVLWNQALAACRTAQIVTQYCVGANYTWLLVEGVYLHSLLVLVGGSEEGHFRYYLLLGWGAPALFVIPWVIVRYLYENTQCWERNEVKAIWWIIRTPILMTILINFLIFIRILGILLSKLRTRQMRCRDYRLRLARSTLTLVPLLGVHEVVFAPVTEEQARGALRFAKLGFEIFLSSFQGFLVSVLYCFINKEVQSEIRRGWHHCRLRRSLGEEQRQLPERAFRALPSGSGPGEVPTSRGLSSGTLPGPGNEASRELESYC | LoF_camp | <50 | – | WT-like_arr | 0.1592 | 0.1592 | 0.8334 | – |
| I221M (protein) RAETGSKGQTAGELYQRWERYRRECQETLAAAEPPSGLACNGSFDMYVCWDYAAPNATARASCPWYLPWHHHVAAGFVLRQCGSDGQWGLWRDHTQCENPEKNEAFLDQRLILERLQVMYTVGYSLSLATLLLALLILSLFRRLHCTRNYIHINLFTSFMLRAAAILSRDRLLPRPGPYLGDQALALWNQALAACRTAQMVTQYCVGANYTWLLVEGVYLHSLLVLVGGSEEGHFRYYLLLGWGAPALFVIPWVIVRYLYENTQCWERNEVKAIWWIIRTPILMTILINFLIFIRILGILLSKLRTRQMRCRDYRLRLARSTLTLVPLLGVHEVVFAPVTEEQARGALRFAKLGFEIFLSSFQGFLVSVLYCFINKEVQSEIRRGWHHCRLRRSLGEEQRQLPERAFRALPSGSGPGEVPTSRGLSSGTLPGPGNEASRELESYC | WT-like_camp | >50 | – | LoF_arr | – | 0.8221 | 0.1962 | 0.8221 |
